Source: patent publication US20230331811A1, “IMMOBILIZED SELF-ASSEMBLED PROTEIN MULTIMERS” (CCOA THERAPEUTICS INC., priority 2020, published 2023)

Target: T1, fibrinogen (Homo sapiens, UniProt P02671+P02675+P02679)
T1 sequence (P02671 20-629 limits assumed): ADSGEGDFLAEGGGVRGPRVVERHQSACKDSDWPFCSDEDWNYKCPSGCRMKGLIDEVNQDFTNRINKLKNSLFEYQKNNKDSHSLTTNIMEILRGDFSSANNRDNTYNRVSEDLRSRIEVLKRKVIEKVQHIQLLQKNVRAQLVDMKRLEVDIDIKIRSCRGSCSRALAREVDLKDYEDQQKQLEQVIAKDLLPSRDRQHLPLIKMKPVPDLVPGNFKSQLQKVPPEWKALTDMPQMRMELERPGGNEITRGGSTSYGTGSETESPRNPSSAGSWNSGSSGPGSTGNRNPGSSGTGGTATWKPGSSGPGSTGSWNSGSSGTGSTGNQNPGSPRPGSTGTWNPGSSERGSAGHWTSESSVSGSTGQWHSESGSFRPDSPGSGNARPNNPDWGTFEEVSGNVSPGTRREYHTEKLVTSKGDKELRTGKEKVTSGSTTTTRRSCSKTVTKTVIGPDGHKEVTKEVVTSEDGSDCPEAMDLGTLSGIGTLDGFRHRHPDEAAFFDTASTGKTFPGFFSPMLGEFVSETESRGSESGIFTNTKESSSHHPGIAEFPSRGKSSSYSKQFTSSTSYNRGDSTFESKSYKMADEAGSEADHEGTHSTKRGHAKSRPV
T1 sequence (P02675 31-491): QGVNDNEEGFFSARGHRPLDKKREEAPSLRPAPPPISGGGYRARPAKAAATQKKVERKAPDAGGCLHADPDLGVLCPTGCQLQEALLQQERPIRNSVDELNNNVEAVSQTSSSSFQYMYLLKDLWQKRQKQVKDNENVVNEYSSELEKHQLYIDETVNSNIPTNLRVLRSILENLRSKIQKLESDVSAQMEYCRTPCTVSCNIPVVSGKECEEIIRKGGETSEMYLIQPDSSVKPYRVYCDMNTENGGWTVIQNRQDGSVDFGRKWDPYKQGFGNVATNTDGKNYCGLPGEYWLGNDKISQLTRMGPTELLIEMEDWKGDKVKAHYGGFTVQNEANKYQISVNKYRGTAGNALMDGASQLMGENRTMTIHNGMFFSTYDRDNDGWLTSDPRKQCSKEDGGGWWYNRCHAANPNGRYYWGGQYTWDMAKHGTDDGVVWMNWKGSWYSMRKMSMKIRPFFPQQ
T1 sequence (P02679 27-453): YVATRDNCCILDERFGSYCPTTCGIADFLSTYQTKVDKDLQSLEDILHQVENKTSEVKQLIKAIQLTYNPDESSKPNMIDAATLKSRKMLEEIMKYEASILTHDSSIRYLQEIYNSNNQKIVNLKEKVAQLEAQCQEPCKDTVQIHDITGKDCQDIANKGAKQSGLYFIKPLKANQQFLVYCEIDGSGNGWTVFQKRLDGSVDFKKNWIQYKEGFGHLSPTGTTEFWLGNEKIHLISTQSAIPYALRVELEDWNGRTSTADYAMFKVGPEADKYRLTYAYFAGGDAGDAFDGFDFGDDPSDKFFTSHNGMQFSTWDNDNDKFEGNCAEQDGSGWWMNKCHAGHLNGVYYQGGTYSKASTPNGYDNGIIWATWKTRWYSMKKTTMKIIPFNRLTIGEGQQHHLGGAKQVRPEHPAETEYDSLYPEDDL
Assay: Fibrinogen ELISA assay
Type: binding
Details: sandwich ELISA
Method: Fibrinogen ELISA Assay. To ensure similar immobilization levels of recombinant human ectodomain aIIbβ3 between the ELISA plate and integrin coupled magnetic beads, the wells of a 96-well micro plate (Nunc MaxiSorp) were incubated with the same aIIbβ3 concentration per surface area as during the preparation of the magnetic beads, 6.6×10^4 μg·mL^−1·c^−2. Each well was coated with aIIbβ3 or control proteins (BSA and β3−/− platelet lysate) by incubation of 6 μg/μL protein in binding buffer (TRIS buffered saline with 0.05% TWEEN-20 and 1 mM each of MgCl2, MnCl2 and CaCl2)) at 4° C. overnight. Incubation of 3% skim milk (ED Millipore) and 2% TWEEN-20 for 1 hour at 37° C. was used for blocking. The concentration of aIIbβ3 per surface area of bead used when coating SAM coated beads is 6.6×10^4 μg·mL^−1·cm^−2, therefore the wells of 96 well plates used were coated with the same density EDC/NHS quenching achieved by increase pH to 8.6. Bead concentration for synthesis: 6×10^9 beads·mL^−1; Integrin-bead reaction concentration=250 μg·mL^−1; Integrin Used=6.6×10^4 μg·mL^−1·cm^−2; Well Surface Area (50 μL)=0.93 cm^2; Concentration/wee for ELISA=6×10^4 μg·mL^−1 (6 μL/well in 50 μL total volume); Stock [αIIbβ3]=5×10^5 μg·mL^−1.
Fibrinogen binding. […] The OPD peroxidase reaction was stopped after 1 hour with 2 M H2SO4 and the absorbance was read at 492 nm. […]

Substance: integrin: Recombinant human ectodomain αIIbβ3 immobilized on 96-well ELISA plate at the same density as on the beads
- CLOD (fibrinogen detection): 0.54 ± 0.07 µM
- Kd (integrin on plate surface, blocking step, HRP labelled detection antibody): 2200 ± 400 nM
